In patent US20250136688A1 (Janssen / Centocor, published 2025):

Molecular target: T1, ectonucleotide pyrophosphatase/phosphodiesterase family member 1 (ENPP1) (human, UniProt P22413 1-925)
T1 construct: whole, on cells
T1 sequence (looked up): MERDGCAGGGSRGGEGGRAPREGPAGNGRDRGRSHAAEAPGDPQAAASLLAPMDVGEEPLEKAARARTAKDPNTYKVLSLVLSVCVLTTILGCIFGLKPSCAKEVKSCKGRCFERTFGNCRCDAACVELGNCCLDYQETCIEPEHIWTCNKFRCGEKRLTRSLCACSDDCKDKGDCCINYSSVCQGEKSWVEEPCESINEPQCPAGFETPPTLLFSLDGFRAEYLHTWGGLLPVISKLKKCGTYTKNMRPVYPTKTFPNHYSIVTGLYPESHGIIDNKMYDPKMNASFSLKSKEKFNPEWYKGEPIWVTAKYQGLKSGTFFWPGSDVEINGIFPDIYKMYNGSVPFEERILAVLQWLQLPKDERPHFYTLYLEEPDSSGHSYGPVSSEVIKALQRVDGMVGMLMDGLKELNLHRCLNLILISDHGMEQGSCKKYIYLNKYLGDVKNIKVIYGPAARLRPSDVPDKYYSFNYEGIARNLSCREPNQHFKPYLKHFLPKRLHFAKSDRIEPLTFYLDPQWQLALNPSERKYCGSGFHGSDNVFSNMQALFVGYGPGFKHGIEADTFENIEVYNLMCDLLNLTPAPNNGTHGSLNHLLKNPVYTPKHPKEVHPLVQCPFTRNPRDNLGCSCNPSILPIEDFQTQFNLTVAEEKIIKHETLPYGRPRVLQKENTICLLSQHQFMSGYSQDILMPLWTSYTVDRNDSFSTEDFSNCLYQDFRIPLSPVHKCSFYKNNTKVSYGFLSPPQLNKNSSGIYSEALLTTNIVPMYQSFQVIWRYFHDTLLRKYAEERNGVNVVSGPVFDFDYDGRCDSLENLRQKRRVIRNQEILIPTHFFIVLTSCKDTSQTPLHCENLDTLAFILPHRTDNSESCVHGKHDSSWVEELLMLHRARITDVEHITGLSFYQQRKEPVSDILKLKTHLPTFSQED
Test: flow cytometry on CHOK1 cells overexpressing ENPP1

- binding result: no binding
B1: NPP3B815 (NPP3B56×CD3B2030-N106A-spFv) (bispecific antibody, human IgG1, kappa, L234A L235A)
chain: EIVLTQSPATLSASPGERVTLSCSASSSVSYMNWYQQKPGCAPRRWIYDSSKLASGVPARFSGSGSGRDYTLTISSLEPEDFAVYYCQQWSRNPPTFGGGTKVEIKGGGSGGSGGCPPCGGSGGQVQLVQSGAEVKKPGSSVKVSCKASGYTFTRSTMHWVKQAPGQGLEWIGYINPSSAYTNYNQKFQGRVTLTADKSTSTAYMELSSLRSEDTAVYYCASPQVHYDYAGFPYWGCGTLVTVSSEPKSSDKTHTCPPCPAPEAAGGPSVFLFPPKPKDTLMISRTPEVTCVVVSVSHEDPEVKFNWYVDGVEVHNAKTKPREEQYNSTYRVVSVLTVLHQDWLNGKEYKCKVSNKALPAPIEKTISKAKGQPREPQVYTLPPSREEMTKNQVSLWCLVKGFYPSDIAVEWESNGQPENNYKTTPPVLDSDGSFFLYSKLTVDKSRWQQGNVFSCSVMHEALHNHYTQKSLSLSPGK
heavy: EVQLVESGGGRVKPGGSLRLSCAASGFTFSDYSMNWVRQAPGKGLEWVSSISSISSYVKYADSVKGRFTMSRDNAKNSLFLQMNSLRDEDMAVYYCARGHYFDYWGQGTLVTVSSASTKGPSVFPLAPSSKSTSGGTAALGCLVKDYFPEPVTVSWNSGALTSGVHTFPAVLQSSGLYSLSSVVTVPSSSLGTQTYICNVNHKPSNTKVDKKVEPKSCDKTHTCPPCPAPEAAGGPSVFLFPPKPKDTLMISRTPEVTCVVVSVSHEDPEVKFNWYVDGVEVHNAKTKPREEQYNSTYRVVSVLTVLHQDWLNGKEYKCKVSNKALPAPIEKTISKAKGQPREPQVYTLPPSREEMTKNQVSLSCAVKGFYPSDIAVEWESNGQPENNYKTTPPVLDSDGSFFLVSKLTVDKSRWQQGNVFSCSVMHEALHNRFTQKSLSLSPGK
light: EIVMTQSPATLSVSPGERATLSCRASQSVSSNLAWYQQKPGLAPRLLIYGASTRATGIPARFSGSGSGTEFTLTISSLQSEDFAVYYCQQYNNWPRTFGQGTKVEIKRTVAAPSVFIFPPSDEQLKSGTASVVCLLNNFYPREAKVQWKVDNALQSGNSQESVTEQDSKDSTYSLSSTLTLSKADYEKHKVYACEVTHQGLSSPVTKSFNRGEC
notes: Heavy Chain 1 = anti-CD3 spFv-Fc (knob); Heavy Chain 2 and Light Chain = anti-ENPP3 Fab arm NPP3B56 (hole); IgG1 with L234A, L235A, D265S; also called ENPP3×CD3
